Test results from patent US11180767B2, “Protease deficient filamentous fungal cells and methods of use thereof” (GLYKOS FINLAND OY, priority 2012, dated 2021).

Experiments:
[1] = tested on: rituximab antibody producing strain; test: Treatment of T. reesei rituximab cultures with inhibitors; format: cell-based, Trichoderma reesei
Method: The effectiveness of the inhibitors was also tested with the rituximab antibody producing strain, which contains a VALEKR linker sequence and the pep1 deletion. This strain was grown in triplicate, in small flasks both in presence or absence of chymostatin, SBTI, or pepstatin A. The small shake flasks contained 50 ml of TrMM plus lactose (40 g/l), spent grain extract (20 g/l), and buffer with 100 mM PIPPS at pH 5.5. The SBTI inhibitor was added to the culture at final concentrations of either 100 μg/ml or 500 μg/ml. Chymostatin was used at 100 μM, and pepstatin A was used at 10 μM. Each of the three inhibitors was added to the cultures daily on day 2, 3, 4, and 5.
Growth of the cultures was followed daily by pH from day 2 until day 7. […] In the PIPPS buffered cultures, the pH decreased from an initial pH of 5.5 down to a pH of 4.8 after day 6. With chymostatin and pepstatin A the cultures were monitored up to day 7. On day 7 the average pH for the control bottles was 4.6, while the average pH for chymostatin treated cultures was 4.9, and the average pH of pepstatin A treated cultures was 5.0.
Culture supernatant samples (30 μl) were also collected on days 3, 4, and 5 for analysis of antibody production. The analysis was performed by immunoblots using an anti-IgG heavy chain antibody AP conjugate (Sigma #A3188) and an anti-light chain antibody AP conjugate (Sigma #A3812). Each antibody was diluted 1:30,000 in TBST. The full length rituximab heavy chain is about 51 kD, the rituximab light chain CHBI fusion is about 100 kD, and the free rituximab light chain is about 28 kD.

[2] = tested on: proteases in supernatant from the 6-fold protease deletion strain M400; test: Protease stability of proteins spiked into supernatant of the 6-fold protease deletion strain; format: biochemical, Trichoderma reesei; conditions: pepstatin A 50 μM; SBTI 0.2 mg/ml; pH 4.2, 20 hours, 37°C
Method: The protease stability of the model proteins IGF1, hGH, and IFNα2b were analyzed by spiking them into supernatant from the 6-fold protease deletion strain (Δpep1Δtsp1Δslp1Δgap1Δgap2Δpep4) M400. The supernatant was collected from a large shake flask culture CAH15. The undiluted supernatant from the shake flask cultivation CAH15 was incubated with the purified model proteins with and without pepstatin A (50 μM) and SBTI (0.2 mg/ml) inhibitors for 20 hours at 37° C. The 5 day culture supernatant pH was around 4.2. The reaction containing 0.05 μg μl of model protein was sampled after 20 hours. 50 mM sodium citrate pH 4.0 spiked with model proteins (0.05 g 1) was used as a buffer control.
From each reaction 10 μl was loaded into an 18% SDS PAGE gel and run for 30 minutes at 200 V. The proteins in the gel were then transferred to nitrocellulose for immunoblotting. The nitrocellulose membrane was blocked for 1 hour at room temperature with 5% milk in TBST buffer. The individual blots were probed with their specific primary antibody to detect the appropriate model protein for 1 hour at room temperature on a shaker. The mouse anti-IGF1 antibody (R&D systems #mab291) was used at 2 μg/ml diluted in TBST. The mouse anti-rhGH antibody (Abeam #ab51232) was used at 2 μg/ml diluted in TBST. The mouse anti-IFNα2b antibody (Abeam #ab9386) was used at 1 μg/ml diluted in TBST. […]

[3] = tested on: SIP purified proteases (PEP2, PEP3, PEP4, PEP5, GAP1, SLP2); test: Protease activity of SIP purified fractions against casein with inhibitors (EnzChek); format: biochemical, Trichoderma reesei; conditions: pH 5.5
Method: Protease activity was then tested against casein both in the presence and absence of protease inhibitors. Protease activity against casein was tested using the EnzChek protease assay kit (Molecular probes #E6638, green fluorescent casein substrate). The working stock solution was prepared by diluting the stock to 10 μg ml in 50 mM sodium citrate, pH 5.5. The purified protease fractions (10 μl) were diluted with […] of sodium citrate, pH 5.5. 100 μl of the diluted substrate was combined with the diluted protease fractions in a 96 well sample plate. The plate was then covered and kept at 37° C. for one to three hours. Fluorescence readings were taken at one, two, and three hours with a Varioskan fluorescent plate reader (Thermo Scientific) using 485 nm excitation and 530 nm emission.
The SIP inhibitor peptide, pepstatin A, LIP peptide, SBTI, and chymostatin were used as inhibitors. […] SIP, LIP, and pepstatin A were used at a concentration of 60 μM, and SBTI was used at a concentration of 200 μg/ml.

B1: SBTI: soybean trypsin inhibitor, trypsin and subtilisin inhibitor (protein)
chain: DFVLDNEGNPLENGGTYYILSDITAFGGIRAAPTGNERCPLTVVQSRNELDKGIGTIISSPYRIRFIAEGHPLSLKFDSFAVIMLCVGIPTEWSVVEDLPEGPAVKIGENKDAMDGWFRLERVSDDEFNNYKLVFCPQQAEDDKCGDIGISIDHDDGTRRLVVSKNKPLVVQFQKLDKESL
effect on culture growth (followed by pH) [1]: no significant differences in the pH | rituximab light chain production vs untreated cultures ([1]; SBTI 100 or 500 μg/ml): minor improvement | rituximab heavy chain production vs untreated cultures ([1]; day 5, SBTI 100 or 500 μg/ml, chymostatin 100 μM): several fold higher | stabilisation of hGH, IFNα2b and IGF1 in supernatant [2]: only a small benefit for product stability | proteases inhibited ([3]; SIP, LIP, pepstatin A 60 μM, SBTI 200 μg/ml): able to inhibit SLP2 and PEP4 | inhibition of SIP purified protease activity against casein ([3]; FIG. 11): able to inhibit the SLP2 protease
